In patent publication US12059458B2, “Peptides and combination of peptides and scaffolds for use in immunotherapy against renal cell carcinoma (RCC) and other cancers” (Immatics Biotechnologies GmbH, priority 2015, dated 2024):

system: CD8+ T cells of healthy HLA-A*02 donors; test: In vitro immunogenicity: T-cell priming with aAPCs loaded with peptide/MHC complexes and anti-CD28 antibody, pMHC multimer readout; format: cell-based, human; settings: Table 10B
Excerpt: In order to obtain information regarding the immunogenicity of the TUMAPs of the present invention, the inventors performed investigations using an in vitro T-cell priming assay based on repeated stimulations of CD8+ T cells with artificial antigen presenting cells (aAPCs) loaded with peptide/MHC complexes and anti-CD28 antibody.
In order to perform in vitro stimulations by artificial antigen presenting cells loaded with peptide-MHC complex (pMHC) and anti-CD28 antibody, the inventors first isolated CD8+ T cells from fresh HLA-A*02 leukapheresis products via positive selection using CD8 microbeads (Miltenyi Biotec, Bergisch-Gladbach, Germany) of healthy donors obtained from the University clinics Mannheim, Germany, after informed consent.
PBMCs and isolated CD8+ lymphocytes were incubated in T-cell medium (TCM) until use consisting of RPMI-Glutamax (Invitrogen, Karlsruhe, Germany) supplemented with 10% heat inactivated human AB serum (PAN-Biotech, Aidenbach, Germany), 100 U/ml Penicillin/100 μg/ml Streptomycin (Cambrex, Cologne, Germany), 1 mM sodium pyruvate (CC Pro, Oberdorla, Germany), 20 μg/ml Gentamycin (Cambrex). 2.5 ng/ml IL-7 (PromoCell, Heidelberg, Germany) and 10 U/ml IL-2 (Novartis Pharma, Nümberg, Germany) were also added to the TCM at this step.
Generation of pMHC/anti-CD28 coated beads, T-cell stimulations and readout was performed in a highly defined in vitro system using four different pMHC molecules per stimulation condition and 8 different pMHC molecules per readout condition.
The purified co-stimulatory mouse IgG2a anti human CD28 Ab 9.3 (Jung et al., 1987) was chemically biotinylated using Sulfo-N-hydroxysuccinimidobiotin as recommended by the manufacturer (Perbio, Bonn, Germany). Beads used were 5.6 μm diameter streptavidin coated polystyrene particles (Bangs Laboratories, Illinois, USA).
pMHC used for positive and negative control stimulations were A*0201/MLA-001 (peptide […] (SEQ ID NO. 152) from modified Melan-A/MART-1) and A*0201/DDX5-001 ([…] from DDX5 (SEQ ID NO. 153)), respectively.
800.000 beads/200 μl were coated in 96-well plates in the presence of 4×12.5 ng different biotin-pMHC, washed and 600 ng biotin anti-CD28 were added subsequently in a volume of 200 μl. Stimulations were initiated in 96-well plates by co-incubating […] CD8+ T cells with 2×10^5 washed coated beads in 200 μl TCM supplemented with 5 ng/ml IL-12 (PromoCell) for 3 days at 37° C. Half of the medium was then exchanged by fresh TCM supplemented with 80 U/ml IL-2 and incubating was continued for 4 days at 37° C. This stimulation cycle was performed for a total of three times. For the pMHC multimer readout using 8 different pMHC molecules per condition, a two-dimensional combinatorial coding approach was used as previously described (Andersen et al., 2012) with minor modifications encompassing coupling to 5 different fluorochromes. Finally, multimeric analyses were performed by staining the cells with Live/dead near IR dye (Invitrogen, Karlsruhe, Germany), CD8-FITC antibody clone SK1 (BD, Heidelberg, Germany) and fluorescent pMHC multimers. For analysis, a BD LSRII SORP cytometer equipped with appropriate lasers and filters was used. Peptide specific cells were calculated as percentage of total CD8+ cells. Evaluation of multimeric analysis was done using the FlowJo software (Tree Star, Oregon, USA). In vitro priming of specific multimer+ CD8+ lymphocytes was detected by comparing to negative control stimulations.

| Substance | Wells positive [%] |
| --- | --- |
| 7 (FLLSLIDRL; listed as Homo sapiens) [compound 7] | + (<20% = +) |
| 9 (ILLQKPDSV; listed as Homo sapiens) [compound 9] | + (<20% = +) |
| 94 (ILHHKVYDL; listed as Homo sapiens) [compound 94] | ++ (20%-49% = ++) |
| 95 (KLTDVGIATL; listed as Homo sapiens) [compound 95] | ++++ (> = 70% = ++++) |
| 2 (ILWREVVTL; listed as Homo sapiens) [compound 2] | + (<20% = +) |

same assay, conditions: percentage of positive donors, Table 10A

| Substance | donors |
| --- | --- |
| 123 (YVDPVITSI; listed as Homo sapiens) [compound 123] | ++++ (> = 70% = ++++) |
| 143 (ALFVRLLALA; listed as Homo sapiens) [compound 143] | +++ (50%-69% = +++) |
| 127 (VLAPLFVYL; listed as Homo sapiens) [compound 127] | ++++ (> = 70% = ++++) |

same assay, conditions: percentage of positive wells, Table 10A

| Substance | wells |
| --- | --- |
| 123 (YVDPVITSI; listed as Homo sapiens) [compound 123] | + (<20% = +) |
| 143 (ALFVRLLALA; listed as Homo sapiens) [compound 143] | + (<20% = +) |
| 127 (VLAPLFVYL; listed as Homo sapiens) [compound 127] | ++ (20%-49% = ++) |

target: HLA-A*02:01 (Homo sapiens, UniProt P04439, D140Y/D185E/D98H/E176V/E277Q/G131W/G231S/I119V/I121R/I166T/I218V/L300P/L318F/N151K/N90K/P208A/P217A/Q86G/Q94H/R138H/R169H/T345S); test: MHC binding assay (UV-ligand exchange, beta2m ELISA, peptide exchange yield); settings: binding to HLA-A*02:01 ranged by peptide exchange yield, β2m ELISA
Excerpt: Candidate peptides for T cell based therapies according to the present invention were further tested for their MHC binding capacity (affinity). The individual peptide-MHC complexes were produced by UV-ligand exchange, where a UV-sensitive peptide is cleaved upon UV-irradiation, and exchanged with the peptide of interest as analyzed. Only peptide candidates that can effectively bind and stabilize the peptide-receptive MHC molecules prevent dissociation of the MHC complexes. To determine the yield of the exchange reaction, an ELISA was performed based on the detection of the light chain (β2m) of stabilized MHC complexes. The assay was performed as generally described in Rodenko et al. (Rodenko et al., 2006).
96 well MAXISorp plates (NUNC) were coated over night with 2 ug/ml streptavidin in PBS at room temperature, washed 4× and blocked for 1 h at 37° C. in 2% BSA containing blocking buffer. Refolded HLA-A*02:01/MLA-001 monomers served as standards, covering the range of 15-500 ng/ml. Peptide-MHC monomers of the UV-exchange reaction were diluted 100 fold in blocking buffer. Samples were incubated for 1 h at 37° C., washed four times, incubated with 2 ug/ml HRP conjugated anti-β2m for 1h at 37° C., washed again and detected with TMB solution that is stopped with […]. Absorption was measured at 450 nm. Candidate peptides that show a high exchange yield (preferably higher than 50%, most preferred higher than 75%) are generally preferred for a generation and production of antibodies or fragments thereof, and/or T cell receptors or fragments thereof, as they show sufficient avidity to the MHC molecules and prevent dissociation of the MHC complexes.

| Substance | Peptide exchange (MHC class I binding score) |
| --- | --- |
| 7 (FLLSLIDRL; listed as Homo sapiens) [compound 7] | +++ (≥50 = +++) |
| 9 (ILLQKPDSV; listed as Homo sapiens) [compound 9] | ++ (≥20% = ++) |
| 94 (ILHHKVYDL; listed as Homo sapiens) [compound 94] | ++ (≥20% = ++) |
| 95 (KLTDVGIATL; listed as Homo sapiens) [compound 95] | ++ (≥20% = ++) |
| 2 (ILWREVVTL; listed as Homo sapiens) [compound 2] | +++ (≥50 = +++) |
| 69 (ILADLLPSL; listed as Homo sapiens) [compound 69] | ++ (≥20% = ++) |
| 113 (SLFDWNVKL; listed as Homo sapiens) [compound 113] | +++ (≥50 = +++) |
| 85 (FVMSEIRTV; listed as Homo sapiens) [compound 85] | +++ (≥50 = +++) |
| 92 (FLFRDILEL; listed as Homo sapiens) [compound 92] | +++ (≥50 = +++) |
| 80 (KLASMLETL; listed as Homo sapiens) [compound 80] | +++ (≥50 = +++) |
| 10 (KLLQNNYGL; listed as Homo sapiens) [compound 10] | ++ (≥20% = ++) |
| 114 (ALAVNISAA; listed as Homo sapiens) [compound 114] | +++ (≥50 = +++) |
| 13 (KIMAQILTV; listed as Homo sapiens) [compound 13] | +++ (≥50 = +++) |
| 70 (SLTALRLLL; listed as Homo sapiens) [compound 70] | ++ (≥20% = ++) |
| 109 (YLWSRVEKL; listed as Homo sapiens) [compound 109] | ++++ (≥75% = ++++) |
| 58 (FLVDFEQSHL; listed as Homo sapiens) [compound 58] | ++++ (≥75% = ++++) |
| 50 (SLSDHIVLL; listed as Homo sapiens) [compound 50] | ++ (≥20% = ++) |
| 39 (YLLNLNHLGL; listed as Homo sapiens) [compound 39] | +++ (≥50 = +++) |
| 67 (LLDVLAPLV; listed as Homo sapiens) [compound 67] | ++ (≥20% = ++) |

| Substance | Peptide exchange (MHC class I binding score) |
| --- | --- |
| 90 (FTLEKNFVI; listed as Homo sapiens) [compound 90] | ++ (≥20% = ++) |
| 73 (GLDGIPFTV; listed as Homo sapiens) [compound 73] | +++ (≥50 = +++) |
| 68 (YVLTQPPSV; listed as Homo sapiens) [compound 68] | ++ (≥20% = ++) |
| 8 (GLASFKSFL; listed as Homo sapiens) [compound 8] | ++ (≥20% = ++) |
| 61 (SLMGILLRI; listed as Homo sapiens) [compound 61] | ++ (≥20% = ++) |
| 101 (HIYDKAFITV; listed as Homo sapiens) [compound 101] | ++ (≥20% = ++) |
| 74 (GLFHKQVTV; listed as Homo sapiens) [compound 74] | +++ (≥50 = +++) |
| 60 (ILWKDIEYV; listed as Homo sapiens) [compound 60] | +++ (≥50 = +++) |
| 57 (SLQKEILYL; listed as Homo sapiens) [compound 57] | ++ (≥20% = ++) |
| 71 (ALDGHLYAV; listed as Homo sapiens) [compound 71] | +++ (≥50 = +++) |
| 23 (YIQEVVQYI; listed as Homo sapiens) [compound 23] | +++ (≥50 = +++) |
| 43 (YLKDELDEL; listed as Homo sapiens) [compound 43] | +++ (≥50 = +++) |
| 54 (ALVAKGLVQA; listed as Homo sapiens) [compound 54] | ++ (≥20% = ++) |
| 17 (ILAQQVHAL; listed as Homo sapiens) [compound 17] | +++ (≥50 = +++) |
| 42 (VILDTGTIQL; listed as Homo sapiens) [compound 42] | ++ (≥20% = ++) |
| 35 (VLHSLQTQL; listed as Homo sapiens) [compound 35] | ++ (≥20% = ++) |
| 31 (VLFGLDPAVIKV; listed as Homo sapiens) [compound 31] | +++ (≥50 = +++) |
| 91 (MLLSSLVSL; listed as Homo sapiens) [compound 91] | ++ (≥20% = ++) |
| 89 (SLLLAVTEV; listed as Homo sapiens) [compound 89] | ++ (≥20% = ++) |
